Laboratory results: patent publication US20130230533A1 (Regeneron, published 2013)

Tests used:
[1] = target: T1, human CD48 (on primary human peripheral blood mononuclear cells) (human, UniProt P09326 27-220); assay: cell-based or functional assay
T1 sequence: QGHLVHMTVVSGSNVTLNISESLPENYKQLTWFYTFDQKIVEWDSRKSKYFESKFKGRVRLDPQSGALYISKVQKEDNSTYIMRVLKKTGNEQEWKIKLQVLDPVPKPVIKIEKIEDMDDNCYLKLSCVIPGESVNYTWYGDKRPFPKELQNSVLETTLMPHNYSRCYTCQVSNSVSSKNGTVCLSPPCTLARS

[2] = target: T2, biotinylated dimeric human CD48 protein expressed as a fusion with mouse IgG2a Fc (human, biotinylated); assay: competition ELISA; blocks bio-hCD48-mFc binding to coated h2B4-hFc
T2 construct: also called bio-hCD48-mFc; Dimeric human CD48-mFc
T2 chain: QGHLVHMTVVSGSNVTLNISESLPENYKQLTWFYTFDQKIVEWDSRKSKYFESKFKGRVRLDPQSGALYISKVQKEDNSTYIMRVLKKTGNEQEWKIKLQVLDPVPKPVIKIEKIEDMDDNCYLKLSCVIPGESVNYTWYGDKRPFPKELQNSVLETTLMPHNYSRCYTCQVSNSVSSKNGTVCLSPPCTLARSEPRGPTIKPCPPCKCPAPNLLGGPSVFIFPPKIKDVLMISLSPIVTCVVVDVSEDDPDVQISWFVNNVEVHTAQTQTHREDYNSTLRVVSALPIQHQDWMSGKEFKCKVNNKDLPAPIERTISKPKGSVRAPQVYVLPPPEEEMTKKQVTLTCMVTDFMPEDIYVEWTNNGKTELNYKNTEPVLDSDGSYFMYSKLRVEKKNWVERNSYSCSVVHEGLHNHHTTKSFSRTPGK
Protocol: (§1) The ability of human anti-CD48 monoclonal antibodies to block human CD48 and monkey CD48 binding to the human cognate ligand, human 2B4, was measured using a competition sandwich ELISA (Table 8). Constant amounts of biotinylated dimeric human CD48 protein expressed as a fusion with mouse IgG2a Fc (“bio-hCD48-mFc” [SEQ ID NO: 387]) or monomeric monkey CD48 expressed with a tag consisting of 2 myc and one 6-His epitopes (“mfCD48-mmH” [SEQ ID NO: 386]) were separately titrated with varying amounts of antibodies. These antibody-protein complexes were incubated (1 hr, 25° C.) before being transferred to microtiter plates coated with a dimeric construct expressing the human 2B4 receptor fused to a either human IgG1 (h2B4-hFc [R&D Systems, Inc., Minneapolis, Minn., Cat. No. 1039-2B]) or mouse IgG2a Fc (h2B4-mFc [SEQ ID NO: 389). After a 1 hr at 25° C. the wells were washed and bound human CD48 was detected with streptavidin conjugated with horse-radish peroxidase (HRP), and monkey CD48 was detected with an HRP conjugated anti-myc polyclonal antibody. The ELISA was developed with a TMB solution to produce a colorimetric reaction and quenched with sulfuric acid before reading absorbance at 450 nm on a Victor X5 plate reader. Sigmoidal dose response curves were fit to the data using Prism™ software. […] (Tables 8 and 9, NB=no binding observed)

[3] = target: T3, monomeric monkey CD48 expressed with a tag consisting of 2 myc and one 6-His epitopes (monkey); assay: competition ELISA; blocks mfCD48-mmH binding to coated h2B4-hFc
T3 construct: also called mfCD48-mmH; Monomeric monkey CD48-mmH
T3 chain: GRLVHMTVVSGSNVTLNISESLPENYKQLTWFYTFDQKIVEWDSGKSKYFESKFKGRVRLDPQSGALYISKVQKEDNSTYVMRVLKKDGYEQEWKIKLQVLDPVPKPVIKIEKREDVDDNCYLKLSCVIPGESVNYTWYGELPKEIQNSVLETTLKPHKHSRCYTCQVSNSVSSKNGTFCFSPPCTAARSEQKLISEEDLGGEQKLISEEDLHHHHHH
Protocol: as §1

[4] = target: T2, biotinylated dimeric human CD48 protein …; assay: competition ELISA; blocks bio-hCD48-mFc binding to coated h2B4-mFc
Protocol: as §1

[5] = target: T1, human CD48 (on primary human peripheral …); assay: cell-based or functional assay; remark: listed apart in the source
[6] = target: T1, human CD48 (on primary human peripheral …); assay: cell-based or functional assay; remark: listed apart in the source
[7] = target: T3, monomeric monkey CD48 expressed with a …; assay: competition ELISA; blocks mfCD48-mmH binding to coated h2B4-mFc
Protocol: as §1

[8] = target: T1, human CD48 (on primary human peripheral …); assay: cell-based or functional assay; remark: listed apart in the source
[9] = target: T1, human CD48 (on primary human peripheral …); assay: cell-based or functional assay; remark: listed apart in the source

B1: H2M1709N (antibody, mouse IgG2, V domains shown)
VH: QVQLVQSGAEVKKPGASVKVSCKVSGYTLTELSIHWVRQAPGKGLEWMGGFDPEDGETIYAQKFQGRVNMTEDTSTDTAYMELSSLRSDDTTVYFCASLLPYFDYWGQGTLVTVSS
VL: EIVLTQSPGTLSLSPGERATLSCRASQSVSSSYLAWYQQKPGQAPRLLIYGASSRATGIPDRFSGSGSGTDFTLSISRLEPEDFAVYFCQQYGSSMYTFGQGTKLEIK
notes: Human variable domains, mouse IgG2 Fc (H2M)
Inhibition of IFN-gamma Release IC50; Donor 1 [1]: 4.8e-11 Molar
Inhibition of IFN-gamma Release IC50; Donor 2 [1]: 5.7e-11 Molar
Inhibition of IFN-gamma Release IC50; Donor 3 [1]: 1.2e-10 Molar
Inhibition of IFN-gamma Release IC50; Donor 4 [1]: 1.1e-10 Molar
Inhibition of IFN-gamma Release IC50; Donor 5 [1]: 3.2e-11 Molar
IC50 [2]: 0.045 nM
IC50 [3]: 0.12 nM

B2: H4H1789Pa (antibody, V domains shown)
VH: EVQLLESGGGLVHPGGSLRLSCAASGFTFGGYAMSWVRQAPGKGLEWVSLISGSGGSTYYADSVKGRFTIFRDNSKNTLYLQMISLRAEDSAVYYCAKYSNYDYFDPWGQGTLVTVSS
VL: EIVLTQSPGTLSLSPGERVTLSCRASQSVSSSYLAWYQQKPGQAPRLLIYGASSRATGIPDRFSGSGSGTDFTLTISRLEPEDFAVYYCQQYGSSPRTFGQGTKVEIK
notes: Human IgG4 Fc (H4H)
IC50 [4]: 0.053 nM
Inhibition of IFN-gamma Release IC50; Donor 8 [5]: 3.7e-11 Molar
Inhibition of IFN-gamma Release IC50; Donor 9 [5]: 1.6e-11 Molar
Inhibition of IFN-gamma Release IC50; Donor 10 [5]: 1.3e-11 Molar
Inhibition of IFN-gamma Release IC50; Donor 11 [5]: 1.3e-11 Molar
Inhibition of IFN-gamma Release IC50; Donor 6 [6]: 1.2e-11 Molar
Inhibition of IFN-gamma Release IC50; Donor 7 [6]: 1.8e-11 Molar
IC50 [7]: 0.038 nM
% Blockade of IFNγ release, MLR; D1 [8]: 65%
% Blockade of IFNγ release, MLR; D2 [8]: 66%
% Blockade of IFNγ release, MLR; D3 [8]: 88%
% Blockade of IFNγ release, MLR; D4 [8]: 36%
% Blockade of IFNγ release, MLR; D5 [8]: 89%
% Blockade of IFNγ release, MLR; D6 [8]: 82%
% Blockade of IFNγ release, MLR; D7 [8]: 75%
% Blockade of IFNγ release, MLR; D8 [8]: 65%
% Blockade of IFNγ release, MLR; D9 [8]: 66%
IC50 of IFNγ release, MLR; D1 [9]: ~0.0014 nM
IC50 of IFNγ release, MLR; D2 [9]: ~0.0093 nM
IC50 of IFNγ release, MLR; D4 [9]: 0.23 nM
IC50 of IFNγ release, MLR; D5 [9]: ~0.09 nM
IC50 of IFNγ release, MLR; D6 [9]: 0.0028 nM
IC50 of IFNγ release, MLR; D8 [9]: 0.029 nM
IC50 of IFNγ release, MLR; D9 [9]: 0.18 nM
IC50 of IFNγ release, MLR; D10 [9]: ~0.05 nM
IC50 of IFNγ release, MLR; D11 [9]: ~0.092 nM
IC50 of IFNγ release, MLR; D12 [9]: ~0.3 nM
IC50 of IFNγ release, MLR; D13 [9]: ~0.096 nM
IC50 of IFNγ release, MLR; D14 [9]: 0.2 nM
IC50 of IFNγ release, MLR; D15 [9]: ~0.0027 nM
IC50 of IFNγ release, MLR; D16 [9]: ~0.012 nM

B3: H2M1712N (antibody, mouse IgG2, V domains shown)
VH: QIQLVQSGAEMKRPGTSVKVSCKASGYTFSSYGINWVRQAPGQGLEWMGWISAYNGDTNYAQKLQGRVTMTTDTSTTTAYMEVRSLRSDDTAVYYCARFLTGTKDLYYGMDVWGQGTTVTVSS
VL: DIQMTQSPSSLSASVGDRVTITCQASQDISNFLNWYQQKPGKAPDLLINDASILETGVPSRFSGSGSGTDFTLTINSLQPEDIATYYCQQYDNLPLTFGGGTKVEIK
notes: as for B1
Inhibition of IFN-gamma Release IC50; Donor 1 [1]: 2e-11 Molar
Inhibition of IFN-gamma Release IC50; Donor 2 [1]: 2.8e-11 Molar
Inhibition of IFN-gamma Release IC50; Donor 3 [1]: 7.2e-11 Molar
Inhibition of IFN-gamma Release IC50; Donor 4 [1]: 4.8e-11 Molar
Inhibition of IFN-gamma Release IC50; Donor 5 [1]: 1.1e-11 Molar
IC50 [2]: 0.014 nM
IC50 [3]: 0.017 nM

B4: H2M1811N (antibody, mouse IgG2, V domains shown)
VH: QVQLVQSGAEAREPGASVRVSCKASGYTFTDYFIHWVRQAPGQGLEWMGWINPNSGATNFAQKFQGRVTMTRDTSLITAYMDLSRLKSDDAAVFYCARDVDGSGWYLDFWGQGTLVTVSS
VL: EIVLTQSPATLSLSPGERATLSCRASQSVSIYLAWYQQKPGQAPRLLIYDASNRATGIPARFSGSGSGTDFTLTISRLEPEDFAVYYCQQRSDWPPSITFGQGTRLEIK
notes: as for B1
Inhibition of IFN-gamma Release IC50; Donor 1 [1]: 9.1e-11 Molar
Inhibition of IFN-gamma Release IC50; Donor 2 [1]: 4.6e-10 Molar
Inhibition of IFN-gamma Release IC50; Donor 3 [1]: 8.3e-11 Molar
Inhibition of IFN-gamma Release IC50; Donor 4 [1]: 4.8e-10 Molar
Inhibition of IFN-gamma Release IC50; Donor 5 [1]: 9.4e-11 Molar
IC50 [2]: 0.49 nM
IC50 [3]: 0.22 nM
